Laboratory results: PMC3261159

Molecular target: 14-3-3ζ (UniProt P63104)
Experiment: anti-HA co-IP, Myc Western blot
Conditions: reference: wild-type Myc-Stat3 (688–770); sites S727

binding against the reference: lost
Substance: Stat3 C-terminal region, 688-770 (from UniProt P40763) S727A
